Source: PMC5274527

Key:
[1] = molecular target: human red cone opsin with C-terminal 1D4 tag (pcDNA3.1(+), without eGFP) (human) (UniProt P04000); assay: cross-linking
[2] = molecular target: human red cone opsin fused at its C-terminus to eGFP or mCherry (human) (UniProt P04000); assay: pulsed-interleaved excitation fluorescence cross-correlation spectroscopy
[3] = molecular target: human red cone opsin fused at its C-terminus to eGFP or mCherry (human) (UniProt P04000); assay: fluorescence correlation spectroscopy
[4] = molecular target: human red cone opsin fused at its C-terminus to eGFP or mCherry (human) (UniProt P04000); assay: FRET or BRET

percent DSG dimers (of monomer plus dimer bands) [1] [%] | median fc (relative cross-correlation) [2] | average molecular brightness [3] [cpsm] | stoichiometry N [3] | FRET efficiency (average) [4] [%] | FRET efficiency (highest single-cell value) [4] [%] | Substance
79 | – | – | – | – | – | human red cone opsin with C-terminal 1D4 tag (pcDNA3.1(+), without eGFP) (from UniProt P04000 1-352) (receptor)
– | 0.19 | 738 | 2 | 3.6 | 12 | human red cone opsin fused at its C-terminus to eGFP or mCherry (from UniProt P04000 1-352) (receptor)
